According to patent publication US10876098B2, “Polynucleotide, host cell and a method to recombinantly produce the protein encoded by said polynucleotide having peroxygenative activity” (CONSEJO SUPERIOR DE INVESTIGACIONES CIENTIFICAS (CSIC), priority 2015, dated 2020):

Experiments:
[1] = Isoelectric point by two-dimensional electrophoresis; type: physicochemical
Procedure: The analyses were performed using an Autoflex III MALDI-TOF-TOF unit with smartbeam laser (Bruker Daltonics). The samples were evaluated in positive mode. The method was calibrated using BSA with standard, thereby covering a range of 15,000 to 70,000 Da. In order to determine the isoelectric point of the UPO variants, 8 μg of pure enzyme were subjected to two-dimensional electrophoresis. These experiments were carried out at the Proteomic and Genomic Service of the Biological Research Centre (CIB-CSIC, Spain).

[2] = Thermostability assay (T50), culture supernatants, residual activity with ABTS; type: physicochemical
Procedure: An individual S. cerevisiae colony was selected with the corresponding clone (grown in a SC drop-out minimal medium plate: 100 mL of 6.7% yeast nitrogen base, 100 mL of 19.2 g/L uracil-free amino acid supplement, 100 mL of 20% glucose, 1 mL of 25 g/L chloramphenicol and ddH2O up to 1,000 mL) was inoculated in 2 mL of selective minimal medium (as in the SC plate medium, but with 20 g of bacto agar and rafinose instead of galactose) and was incubated for 48 hour at 30° C. and 220 RPM. An aliquot of this culture was taken such that, upon inoculating it in 5 mL of new minimal medium, optical density at 600 nm would have a value of 0.25 (optical density, OD600=0.25). This starter was incubated until completing two full growth cycles (between 6 and 8 hours), at which time 1 mL of cells were taken to inoculate 9 mL of expression medium in a 100 mL flask (OD600=0.1). This culture of each clone was incubated for 72 hours at 25° C. and 220 RPM (at peak UPO activity; OD600=25-30), the cells were separated by centrifugation (10 minutes at 4,500 RPM and 4° C.) and supernatant was filtered (using a glass and nitrocellulose filter with a pore size of 0.45 μm). Appropriate dilutions of the supernatants were prepared so that aliquots of 20 μL would give rise to a linear response in kinetic mode. 50 μL of supernatant were used for each point in a temperature gradient created by means of thermocyclator, from 30 to 80° C. After incubating for 10 minutes, the aliquots were cooled in ice for 10 minute and tempered at room temperature for 5 minutes. […] The thermostability values were calculated in accordance with the ratio between the residual activities incubated at different temperatures and the value of initial activity at room temperature. The value of T50 was determined as the value of the temperature at which the protein loses 50% of it initial activity after incubating for 10 minutes.
An individual S. cerevisiae colony was selected with the corresponding clone (grown on a SC drop-out minimal medium plate: 100 mL of 6.7% yeast nitrogen base, 100 mL of 19.2 g/L uracil-free amino acid supplement, 100 mL of 20% glucose, 1 mL of 25 g/L chloramphenicol and ddH2O up to 1,000 mL), was inoculated in 3 mL of selective minimal medium (like the SC plate medium, but with 20 g of bacto agar and rafinose instead of galactose) and incubated for 48 hours at 30° C. and 220 RPM. […] The thermostability values were calculated in accordance with the ratio between the residual activities incubated at different temperatures and the value of initial activity at room temperature. The value of T50 was determined as as the temperature value at which the protein loses 50% of its initial activity after incubating for […].

Optimum pH for ABTS = type: biochemical
[3] = Conversion of 1-naphthol into 1,4-naphthoquinone, HPLC; type: biochemical; conditions: versus PaDa-I
Procedure: Each reaction was performed in triplicate and were stopped with HCl (pH<1) at different times (between 60 and 600 s). Inset: polymeric colorimetric products derived from 1.4-naphthoquinone, 1: PaDa-I and 2: JaWa.
This effect can also be observed at first glance, since the polymeric products produced in the reaction with the PaDa-I variants (SEQ ID NO: 18) (due to non-enzymatic quinone regrouping processes) are coloured (FIG. 4). There are hypotheses in literature on the possibility that UPO is similar to CPO in the existence of different sites with peroxidase activity in its structure. To suppress these alternative peroxidation pathways, the structure of the AaeUPO1 crystal was closely examined and a variant was built by mean of directed mutagenesis in Trp24 (FIG. 5A), a highly oxidable residue, found on the protein surface, using the PaDa-I (SEQ ID NO: 18) and JaWa (SEQ ID NO: 24) variants as templates, as described in the section on materials and methods.

[4] = Turnover with 5′-hydroxypropranolol as substrate, HPLC; type: biochemical; conditions: 0.03 μM enzyme, 0.4 mM 5′-hydroxypropranolol, 2 mM H2O2, absence of ascorbic acid
Procedure: FIG. 14 Turnover rates of AaeUPO, JaWa and SoLo. […] The disappearance of the product 5′-hydroxypropranolol can be observed due to the formation of its corresponding quinone by means of the peroxidase activity of the enzyme.
The reactions were analysed by means of chromatography in reverse phase (HPLC). The equipment was composed of a tertiary pump (Varian-Agilent Technologies, USA) coupled to an autosampler (Merck Millipore, MA, USA); for the separation, a Zorbax Eclipse plus C18 column (15 cm×4.6 cm) at 40° C. was used and the detection was performed using a photodiode detector (PDA) (Varian, Agilent Technologies, USA). The mobile phase selected was a gradient from 10% methanol and 90% ddH2O (in both cases with 0.1% of acetic acid) up to 90% methanol and 10% ddH2O at a flow rate of 0.8 mL/min. The reaction was quantified at 280 nm (based on HPLC standards). […] The standard deviations were less than 5% in all cases.

Optimum pH for DMP = type: biochemical
[5] = Optimum pH for naphthalene; type: biochemical

B1: JaWa: PaDa-I variant with added mutations G241D and R257K, SEQ ID NO: 24 (protein)
chain: MKYFPLFPTLVYAVGVVAFPDYASLAGLSQQELDAIIPTLEAREPGLPPGPLENSSAKLVNDEAHPWKPLRPGDIRGPCPGLNTLASHGYLPRNGVATPAQIINAVQEGFNFDNQAAIFATYAAHLVDGNLITDLLSIGRKTRLTGPDPPPPASVGGLNEHGTFEGDASMTRGDAFFGNNHDFNETLFEQLVDYSNRFGGGKYNLTVAGELRFKRIQDSIATNPNFSFVDFRFFTAYGETTFPANLFVDGRRDDGQLDMDAARSFFQFSRMPDDFFRAPSPRSDTGVEVVVQAHPMQPGKNVGKINSYTVDPTSSDFSTPCLMYEKFVNITVKSLYPNPTVQLRKALNTNLDFLFQGVAAGCTQVFPYGRD
With B1 as the molecule, how does the pI [1] read?
The pI was 5.3.

What about the “Thermal stability, T50” value ([2]; culture supernatants, temperature at which the enzyme retains 50% of its activity after 10 minutes of incubation) of the same molecule?
Its value is 59.7 °C.

What about the “increase in thermostability (T50) with respect to PaDa-I” value ([2]; versus PaDa-I variant) of the same molecule?
The value was 2 °C.

And the “Optimum pH for ABTS” value (Optimum pH for ABTS)?
The value was 4.0.

What about the “reduction in the ratio 1,4-naphthoquinone:1-naphthol” value [3] of the same molecule?
Its value is ~1.5 fold.

And the “5′-hydroxypropranolol maintained without oxidising” value [4]?
Its value is “oxidise practically the entire product”.

What about the “Optimum pH for DMP” value (Optimum pH for DMP) of the same molecule?
The value was 6.0.

And the “Optimum pH for naphthalene” value [5]?
Its value is 6.0.
